Patent US10975142B2, “Endotrophin neutralization and use thereof” (THE BOARD OF REGENTS OF THE UNIVERSITY OF TEXAS SYSTEM, priority 2013, dated 2021)

Experiments:
[1] = analysis of ETP homing (IRD-800 labeled ETP, tail vein); type: in vivo, mouse
Method: FIGS. 2A-2D: ETP levels in human cancer specimens and its target tissues. (FIG. 2A and FIG. 2B) Human cancer tissues compared with those of benign tissues were immunostained with human ETP-specific polyclonal antibody. Human samples for breast cancer (FIG. 2A) and colon cancer (FIG. 2B) were analyzed. […] (FIG. 2C and FIG. 2D) Whole body in vivo imaging of injected ETP. IRD-800 fluorescence-labeled ETP protein (10 μg) was intravenously injected into WT, 8-week-old PyMT, and 10-week-old PyMT mice by tail vein. (FIG. 2C) ETP levels were visualized by the Licor Infrared Scanner 10-90 minutes after injection. Arrows indicate mammary tumors. L, liver; B, bladder; T, tumor. IgG was used as a negative control. (FIG. 2D) Tissues were excised 2 hours after injection, and ETP-positive fluorescence signals were determined with a Licor Infrared Scanner. Quantified values were normalized to total area and represented as percentage of WT. ***P<0.001.
The homing of ETP in circulation was determined by injecting fluorescently labeled ETP into tail veins. ETP and IgGs were labeled with IRDye800 CW NHS Ester (Licor Bioscience) at a 1:1 molar ratio (dye/protein), according to the manufacturer's instructions. Whole-body fluorescence images were collected on the Odyssey scanner (Licor Bioscience). […] Quantified values were normalized to the total area of each organ.

[2] = test system: MS-1 cells; test: MS-1 migration assay (Transwell); type: cell-based, mouse; details: ETP protein 1 μg/well, 24 hours
Method: FIGS. 7A-7I: ETP acts as a chemokine augmenting tumor growth. […] Tumor volume was determined 1 month after implantation (representative images). Data represent mean±SEM (n=5 per group). ***P<0.001, unpaired t test. (FIG. 7B) In vivo Matrigel bioassay. Matrigel (50 μl) was mixed with ETP (100 ng/plug) or PBS and implanted into WT mice in the presence of IgG, 1D11, or 10B6 (20 μg/plug). 2 days after implantation, plugs were excised and stained for FIG. 7H & FIG. 7E. Scale bars: 100 μm. (FIGS. 7C-7H) Cancer cells were plated in the bottom chamber 1 day prior to seeding MS-1 cells (5×10^5 cells/well) and macrophages (1×10^5 cells/well) atop the membrane chamber in Transwell and incubated for 18-24 hours (FIG. 7C). (FIGS. 7D, 7E, 7F, 7G) Representative images of multiple independent experiments. Scale bars: 100 μm. (FIG. 7H) Quantitation (mean±SEM; n=3 per group). ***P<0.001, […], unpaired t test. (FIG. 7I) MS-1 migration assay. MS-1 cells (5×10^5 cells/well) were plated atop the chamber in Transwell and incubated for 24 hours. […]
Thioglycollate-elicited macrophages or MS-1 in serum-free media were loaded into the upper chamber of a Transwell plate (8 μm pore size; Costar). […] 18 hours later, cells on the underside of the membrane were fixed with 10% formalin, stained with hematoxylin, and counted. […]

[3] = molecular target: T1, ETP (Mus musculus, UniProt E9PWQ3); test: in vivo Matrigel bioassay (stromal cell recruitment into plugs); details: recombinant ETP 100 ng/plug vs PBS, mammary fat pads of WT mice
T1 sequence (E9PWQ3 with tags, fused parts or gaps limits assumed): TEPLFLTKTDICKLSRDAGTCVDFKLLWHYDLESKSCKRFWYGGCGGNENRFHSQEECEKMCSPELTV
Method: FIGS. 7A-7I: ETP acts as a chemokine augmenting tumor growth. […] Tumor volume was determined 1 month after implantation (representative images). Data represent mean±SEM (n=5 per group). ***P<0.001, unpaired t test. (FIG. 7B) In vivo Matrigel bioassay. Matrigel (50 μl) was mixed with ETP (100 ng/plug) or PBS and implanted into WT mice in the presence of IgG, 1D11, or 10B6 (20 μg/plug). 2 days after implantation, plugs were excised and stained for FIG. 7H & FIG. 7E. Scale bars: 100 μm. (FIGS. 7C-7H) Cancer cells were plated in the bottom chamber 1 day prior to seeding MS-1 cells (5×10^5 cells/well) and macrophages (1×10^5 cells/well) atop the membrane chamber in Transwell and incubated for 18-24 hours (FIG. 7C). (FIGS. 7D, 7E, 7F, 7G) Representative images of multiple independent experiments. Scale bars: 100 μm. (FIG. 7H) Quantitation (mean±SEM; n=3 per group). ***P<0.001, […], unpaired t test. (FIG. 7I) MS-1 migration assay. MS-1 cells (5×10^5 cells/well) were plated atop the chamber in Transwell and incubated for 24 hours. Chemotaxis was set up by following cell migration from DMEM/serum-free to DMEM/2% FBS/PBS or DMEM/2% FBS/ETP protein (1 μg/well). Images are representative of multiple independent experiments. Data represent mean±SEM (n=3 per group). ***P=0.008, unpaired t test. Scale bars: 100 μm.

[4] = test system: Met-1 cells; test: allografts of Met-1 cells with ETP or PBS and 1D11 or IgG in a Matrigel plug; type: in vivo, mouse; details: ETP 20 ng/plug vs PBS
Method: FIGS. 6A-6H: ETP augments metastasis through enforcing TGF-β-dependent EMT. (FIG. 6A) E-cadherin immunostaining for tumor tissues from PyMT and PyMT/ETP. (FIG. 6B and FIG. 6C) SBE-luciferase reporter assay. See Supplemental Methods for details. Data represent fold increase (3 independent experiments). **P<0.01, *P<0.05, 2-way ANOVA. pRA-ctrl, empty; pRA-sETP, secretion form; pRA-ETP, intracellular form. (FIGS. 6D-6G) Allografts of Met-1 cells in the presence of either ETP (20 ng/plug) or PBS mixed with 1D11 or IgG (10 μg/plug) within a Matrigel plug. 10 days after implantation, additional 1D11 or IgG (100 μg) was i.p. injected once a week during tumor progression. (FIG. 6D) Tumor volumes represent means±SEM (n=5 per group). *P<0.05, 2-way ANOVA. (FIG. 6E) H&E staining. The ratio of stromal area in tumor tissues was quantified. Data represent mean±SEM (n=5 per group). *P<0.05, unpaired t test. T; tumor and S; stroma. (FIG. 6F) Fibrosis was determined by Masson's Trichrome C stain. Data represent mean±SEM (n=5 per group). **P<0.01, ***P<0.001, unpaired t test. (FIG. 6G) Western blotting for EMT markers E-cadherin, vimentin, and α-SMA. β-actin, loading control. Data represent fold increase (n=5 per group). *P<0.05, **P<0.01, ***P<0.001, unpaired t test. […] 20 days post injection, metastasized cancer cells in the lung tissues were determined by fluorescence intensity. […]

[5] = test system: MCF7; test: cell number counts with recombinant endotrophin protein; type: cell-based, human; details: MCF-7, purified ETP
Method: (§1) FIGS. 15A-15D. Endotrophin has a limited effect on tumor cell proliferation. FIG. 15A. […] An equal number of cancer cells were freshly isolated from tumor tissues of PyMT (ctrl-cancer cells) and PyMT/endotrophin (ETP^+-cancer cells) and implanted into WT mice (1×10^6 cells/mouse). Tumor volume was determined 1 month post-implantation. Quantitative results are represented as mean±SEM (n=7/group). p=n.s vs. Ctrl-cancer cells by unpaired t-test. FIG. 15B. Met-1 cells were seeded into the 96 well plates and incubated with DMEM/10% FBS/PBS, DMEM/10% FBS/endotrophin, or conditioned media acquired from HEK293 or HEK293/endotrophin-overexpressing cells for 24 hours. Mitotic activity was measured with a Mitotic Index Assay Kit (Active Motif) following the manufacturer's protocol. Paclitaxel (1 μM) was used as a positive control of mitosis. Quantified results are represented as mean±SEM (n=10/group) p=n.s vs. PBS or Ctrl-media by unpaired t-test. FIG. 15C. Human breast cancer cells, MCF7 (0.1×10^5) were plated in the 24 well plates with or without recombinant endotrophin protein and cell numbers were counted over time. The quantification of results is represented as mean±SEM (n=6/group, triplicate). p=n.s vs. PBS by unpaired t-test. FIG. 15D. […] Endomucin positive area was quantified and represented as mean±SEM (multiple images, n=4/group). ***p=0.0008 vs. ctrl by unpaired t-test. Scale bars: 200 μm.

[6] = test system: Met-1 cells; test: Mitotic Index Assay with endotrophin; type: cell-based, mouse; details: Met-1, purified ETP, 24 hours
Method: as §1

[7] = molecular target: T2, native form of endotrophin protein (Mus musculus, UniProt E9PWQ3); test: capture of IRD-800 labeled native endotrophin by monoclonal antibodies (Protein G Sepharose pull-down); type: binding; details: 2 hours at room temperature, rat-IgG as control
T2 construct: made in house; purified from conditioned media by gel filtration
T2 sequence (E9PWQ3 with tags, fused parts or gaps): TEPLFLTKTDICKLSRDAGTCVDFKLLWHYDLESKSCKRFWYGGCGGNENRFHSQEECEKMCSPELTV
Excerpt: FIGS. 9A-9C. Generation of endotrophin-specific antibodies. FIG. 9A. HEK-293 cell produced mouse endotrophin was subjected to Western blotting using rabbit anti-mouse endotrophin polyclonal antibody. FIG. 9B. Bacterially produced GST-fused recombinant human endotrophin protein was subjected to western blotting using a rabbit anti-human endotrophin polyclonal antibody. GST protein was used as a negative control. The arrow points at endotrophin. FIG. 9C. […] IRD (infrared dye)-800 labeled native form of endotrophin protein was incubated with either endotrophin monoclonal antibodies, including 4D1, 4F8, 10B6-A11, 10B6-B5, and 10B6-C3 or a rat-IgG for 2 hours at room temperature and subsequently incubated with Protein G Sepharose for 1 hour. The protein-Sepharose complex was separated on a 10-20% Tricine gel after 3 times washing with PBS. Captured endotrophin protein was visualized on a Licor Odyssey Infrared Scanner (Licor Bioscience). Green color represents the IRD800 channel.

B1: ETP: cleaved C5 fragment of the COL6α3 chain, used as recombinant or purified protein (protein)
chain: TEPLFLTKTDICKLSRDAGTCVDFKLLWHYDLESKSCKRFWYGGCGGNENRFHSQEECEKMCSPELTV
whole body in vivo distribution of labeled ETP ([1]; 10 μg i.v., PyMT mice, compared with control-labeled IgGs): predominantly observed in tumor lesions
ETP fluorescence in excised tissues relative to mammary glands of WT mice ([1]; tissues excised 2 hours after injection): highly enriched in mammary tumor tissues
MS-1 cells recruited (migration) vs controls [2]: twice as many
stromal cells recruited into Matrigel plugs [3]: significantly more stromal cells
tumor growth for Met-1 cells [4]: significantly enhanced
cell proliferation (cell numbers over time) [5]: not affected
cell proliferation (mitotic activity) [6]: not affected

B2: 10B6-A11: rat anti-mouse endotrophin monoclonal antibody (antibody, V domains shown)
VH: QVQLQQSGPELAKPGSSVKISCKASGYTFTSYEMHWIKQRPGQGLEWIGYIYPESGSTGYNEKFKGKATLTVDKSSPTAYMQLSSLTPDNSAVYFCTRGLRVLGYVMDVWGHGTSVTVSS
VL: DVQLTQSPSFLSASVGDRVTINCKASQNINKYLNWYQQKLGEAPKRLIYNTNNLQTGIPSRFSGSASGTDYTLTISSLHPEDFATYFCLQHSSLYTFGAGTKLELK
capture of the native form of endotrophin protein [7]: efficiently capture

B3: 10B6-C3: rat anti-mouse endotrophin monoclonal antibody (antibody, V domains shown)
VH: QVQLQQSGPELAKPGSSVKISCKASGYTFTSYEMHWIKQRPGQGLEWIGYIYPESGSTGYNEKFKGKATLTVDKSSPTAYMQLSSLTPDNSAVYFCTRGLRVLGYVMDVWGHGTSVTVSS
VL: DVQLTQSPSFLSASVGDRVTINCKASQNINKYLNWYQQKLGEAPKRLIYNTNNLQTGIPSRFSGSASGTDYTLTISSLHPEDFATYFCLQHSSLYTFGAGTKLELK
capture of the native form of endotrophin protein [7]: efficiently capture

B4: 10B6-B5: rat anti-mouse endotrophin monoclonal antibody (antibody, V domains shown)
VH: QVQLQQSGPELAKPGSSVKISCKASGYTFTSYEMHWIKQRPGQGLEWIGYIYPESGSTGYNEKFKGKATLTVDKSSPTAYMQLSSLTPDNSAVYFCTRGLRVLGYVMDVWGHGTSVTVSS
VL: DVQLTQSPSFLSASVGDRVTINCKASQNINKYLNWYQQKLGEAPKRLIYNTNNLQTGIPSRFSGSASGTDYTLTISSLHPEDFATYFCLQHSSLYTFGAGTKLELK
capture of the native form of endotrophin protein [7]: efficiently capture
